Experimental data: patent publication US20060134740A1
The star is where a group is joined. AMC = Cc1cc(=O)oc2cc(N*)ccc12

B1: wild type subtilisin BPN' (protein)
chain: AQSVPYGVSQIKAPALHSQGYTGSNVKVAVIDSGIDSSHPDLKVAGGASMVPSETNPFQDNNSHGTHVAGTVAALNNSIGVLGVAPSASLYAVKVLGADGSGQYSWIINGIEWAIANNMDVINMSLGGPSGSAALKAAVDKAVASGVVVVAAAGNEGTSGSSSTVGYPGKYPSVIAVGAVDSSNQRASFSSVGPELDVMAPGVSIQSTLPGNKYGAYNGTSMASPHVAGAAALILSKHPNWTNTQVRSSLENTTTKLGDSFYYGKGLINVQAAAQ

What was measured:
[1] = target: fusion of the pR8 prodomain onto the N-terminus of the 56 amino acid B domain (GB) of streptococcal Protein G, P06654
[2] = target: subtilisin BPN' mutant S149 (Bacillus amyloliquefaciens) (UniProt P00782); test: transient state kinetics with fluorogenic substrates
[3] = target: subtilisin BPN' mutant S149 (Bacillus amyloliquefaciens) (UniProt P00782); test: transient state kinetics with fluorogenic substrate

Binder	cleavage of the fusion protein [1]	fold preference over sDVRAF-AMC [2] [fold]	Ks [3] [µM]
B1	The fusion protein was rapidly and specifically cleaved to release GB from pR8	–	–
{code s}-DFRAM-{AMC} [fluorogenic pentapeptide substrate sDFRAM-AMC]	–	5	1
{code s}-DVRAF-{AMC} [fluorogenic substrate sDVRAF-AMC]	–	–	5
